In the supplement of paper PMC10724198 one finds protein stability index data, which are given here for 50 sequences.

For this series, the system named is Saccharomyces cerevisiae. Kind of series: protein stability index of tFT-peptide fusion (C-terminal peptide) (PSI (0-1 scale)); higher = more stable (slower turnover). As to conditions: temperature: 30 C. Here is the method:
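MPS profiling in S. cerevisiae of the yeast C-terminome library: the last 12 aa of each annotated ORF are fused to the C-terminus of a sfGFP-mCherry timer, after a GGGS linker. Cells are FACS-sorted into 8 mCherry/sfGFP bins and deep-sequenced. PSI runs from 0 (unstable) to 1 (stable); wild type and das1Δ backgrounds, two technical replicates each.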

Where [1] appears, read: genetic background: das1 deletion.

± gives the standard deviation of the averaged measurements.

For the sequence PGWDFNVQIFAI [HRD3 C-terminal 12 aa], the protein stability index runs as follows: under setting [1], 0.618 ± 0.005; (genetic background: wild type) 0.607 ± 0.0086.

Turning to “PIICASVTFLPT [YAL056C-A C-terminal 12 aa]”, the protein stability index under setting [1] was found to be 0.6572 ± 0.00082 and the protein stability index (genetic background: wild type) came out at 0.629 ± 0.026.

Take PIKGGDKASSEL [ATG5 C-terminal 12 aa]: the protein stability index is, setting by setting: under setting [1], 0.679 ± 0.0085; (genetic background: wild type) 0.6877 ± 0.0045.

Consider PILSQEVDRWRL [GAC1 C-terminal 12 aa], for which the protein stability index was 0.732 ± 0.011 under setting [1] and 0.744 ± 0.018 (genetic background: wild type).

With PIRGVTGGVYKW [MRPL22 C-terminal 12 aa], the protein stability index reads like this: under setting [1], 0.71 ± 0.012; (genetic background: wild type) 0.702 ± 0.02.

In the case of PKALFQSRDQEH [SIC1 C-terminal 12 aa], the protein stability index was determined as 0.724 ± 0.022 under setting [1] and 0.702 ± 0.014 (genetic background: wild type).

Turning to PKIGILHNYLYL [YFT2 C-terminal 12 aa], the protein stability index worked out at 0.698 ± 0.015 under setting [1] and 0.654 ± 0.0094 (genetic background: wild type).

Take “PLLLVSHLNFAV [YIR020C-B C-terminal 12 aa]”: the protein stability index by setting is: under setting [1], 0.673 ± 0.0087; (genetic background: wild type) 0.557 ± 0.033.

In turn, PLVHEVNGNEGK [DUF1 C-terminal 12 aa] displayed a protein stability index under setting [1] of 0.68 ± 0.011 and a protein stability index (genetic background: wild type) of 0.716 ± 0.076.

Consider PNAIRGIKAKKA [COX7 C-terminal 12 aa], for which the protein stability index is, setting by setting: under setting [1], 0.723 ± 0.011; (genetic background: wild type) 0.675 ± 0.046.

PPVPEVPQEYTQ [TCB3 C-terminal 12 aa] showed a protein stability index under setting [1] of 0.722 ± 0.014 and a protein stability index (genetic background: wild type) of 0.709 ± 0.041.

For PSLRTRSSYTEE [FLR1 C-terminal 12 aa], the protein stability index by setting is: under setting [1], 0.6845 ± 0.0013; (genetic background: wild type) 0.717 ± 0.043.

With PTCETTIDIDRI [ZRG17 C-terminal 12 aa], the protein stability index by setting is: under setting [1], 0.687 ± 0.0087; (genetic background: wild type) 0.65 ± 0.0076.

Sequence QDGIKEAASALA [INO80 C-terminal 12 aa] had a protein stability index under setting [1] of 0.6794 ± 0.0025 and a protein stability index (genetic background: wild type) of 0.665 ± 0.04.

In the case of QDKRSSQAIDVL [MMS21 C-terminal 12 aa], the protein stability index worked out at 0.688 ± 0.015 under setting [1] and 0.6684 ± 0.0019 (genetic background: wild type).

For QEGNRMCIWMSG [YFL015C C-terminal 12 aa], the protein stability index runs as follows: under setting [1], 0.7 ± 0.0079; (genetic background: wild type) 0.7 ± 0.011.

As for QEGTFKRLALPA [THI11 C-terminal 12 aa], the protein stability index stood at 0.639 ± 0.013 under setting [1] and 0.65426 ± 7.7e-05 (genetic background: wild type).

In the case of QEKEHKKHTVAR [CAJ1 C-terminal 12 aa], the protein stability index was 0.694 ± 0.011 under setting [1] and 0.672 ± 0.014 (genetic background: wild type).

On to QFLFTGRQKNYV [ERP2 C-terminal 12 aa], for which the protein stability index runs as follows: under setting [1], 0.718 ± 0.017; (genetic background: wild type) 0.718 ± 0.024.

In the case of QFWKNTPKVEQK [HOC1 C-terminal 12 aa], the protein stability index runs as follows: under setting [1], 0.71 ± 0.024; (genetic background: wild type) 0.695 ± 0.019.

In turn, QGALDSLLNGDV [DSK2 C-terminal 12 aa] came in with a protein stability index under setting [1] of 0.685 ± 0.03 and a protein stability index (genetic background: wild type) of 0.701 ± 0.019.

For QGKAFYDRIKDL [RFS1 C-terminal 12 aa], the protein stability index is, setting by setting: under setting [1], 0.683 ± 0.013; (genetic background: wild type) 0.255 ± 0.025.

Turning to QGKVRLWKLNHY [UTP18 C-terminal 12 aa], the protein stability index is 0.7 ± 0.021 under setting [1] and 0.616 ± 0.025 (genetic background: wild type).

As for QIDKYMDLFTEG [PDH1 C-terminal 12 aa], the protein stability index reads like this: under setting [1], 0.7253 ± 0.0065; (genetic background: wild type) 0.7354 ± 0.0063.

In the case of QIVEEWIVSTEA [CLB4 C-terminal 12 aa], the protein stability index is 0.623 ± 0.012 under setting [1] and 0.63 ± 0.023 (genetic background: wild type).

With QIVNSTPVFTWC [LSB6 C-terminal 12 aa], the protein stability index came to 0.653 ± 0.03 under setting [1] and 0.652 ± 0.034 (genetic background: wild type).

Consider “QKRSCFFLANIH [YKL183C-A C-terminal 12 aa]”, for which the protein stability index under setting [1] was 0.661 ± 0.01 and the protein stability index (genetic background: wild type) turned out to be 0.608 ± 0.027.

The sequence QLENKLEILKQK [SPC19 C-terminal 12 aa] returned a protein stability index under setting [1] of 0.699 ± 0.052 and a protein stability index (genetic background: wild type) of 0.7259 ± 0.0072.

Consider QLLNLLVKISQL [RFC2 C-terminal 12 aa], for which the protein stability index runs as follows: under setting [1], 0.677 ± 0.032; (genetic background: wild type) 0.18 ± 0.0089.

Turning to QNLLPAEKFTHN [CTR1 C-terminal 12 aa], the protein stability index is, setting by setting: under setting [1], 0.6962 ± 0.0032; (genetic background: wild type) 0.663 ± 0.0075.

QPKKKRKKSILH [SPP41 C-terminal 12 aa] yielded a protein stability index under setting [1] of 0.749 ± 0.061 and a protein stability index (genetic background: wild type) of 0.672 ± 0.05.

For the sequence “QPLLPCFFRRAV [YER147C-A C-terminal 12 aa]”, the protein stability index runs as follows: under setting [1], 0.691 ± 0.011; (genetic background: wild type) 0.4308 ± 0.0042.

On to QQLQSPTAPPTE [COX14 C-terminal 12 aa], for which the protein stability index stood at 0.727 ± 0.008 under setting [1] and 0.694 ± 0.038 (genetic background: wild type).

For QQSESLPQQTTA [PIL1 C-terminal 12 aa], the protein stability index runs as follows: under setting [1], 0.7046 ± 0.0038; (genetic background: wild type) 0.737 ± 0.049.

As for QRIEGMLQLLTS [UTP15 C-terminal 12 aa], the protein stability index under setting [1] came to 0.715 ± 0.025 and the protein stability index (genetic background: wild type) was determined as 0.64093 ± 0.00026.

For QSLYKDATSHWL [GYP1 C-terminal 12 aa], the protein stability index was 0.7085 ± 0.0033 under setting [1] and 0.6825 ± 0.0036 (genetic background: wild type).

As for “QSVAILDGKLVW [YGL258W-A C-terminal 12 aa]”, the protein stability index was 0.677 ± 0.015 under setting [1] and 0.65 ± 0.021 (genetic background: wild type).

On to QTLAPVPYETFI [RPL21A C-terminal 12 aa], for which the protein stability index runs as follows: under setting [1], 0.718 ± 0.01; (genetic background: wild type) 0.728 ± 0.013.

In turn, QVVAIIKKAYEY [ADH4 C-terminal 12 aa] registered a protein stability index under setting [1] of 0.707 ± 0.0071 and a protein stability index (genetic background: wild type) of 0.679 ± 0.015.

In the case of QYKNKLAKNVVL [ARB1 C-terminal 12 aa], the protein stability index was found to be 0.675 ± 0.012 under setting [1] and 0.6797 ± 0.0058 (genetic background: wild type).

Regarding QYTQRVGRPNFE [YGR226C C-terminal 12 aa], the protein stability index worked out at 0.7078 ± 0.0012 under setting [1] and 0.674 ± 0.026 (genetic background: wild type).

In the case of RARPRTANRQHM [CCT2 C-terminal 12 aa], the protein stability index is, setting by setting: under setting [1], 0.68332 ± 0.0002; (genetic background: wild type) 0.6991 ± 0.005.

Take RDLLRDDKVALI [SLD5 C-terminal 12 aa]: the protein stability index is, setting by setting: under setting [1], 0.715 ± 0.023; (genetic background: wild type) 0.6977 ± 0.0027.

In the case of REENAHLETYKV [HRK1 C-terminal 12 aa], the protein stability index came out at 0.7 ± 0.0068 under setting [1] and 0.694 ± 0.016 (genetic background: wild type).

As to RERALKVYKDAM [PHR1 C-terminal 12 aa], the protein stability index is, setting by setting: under setting [1], 0.6824 ± 0.004; (genetic background: wild type) 0.657 ± 0.0079.

For the sequence RFQDGTSVVSIM [SMC2 C-terminal 12 aa], the protein stability index came out at 0.695 ± 0.011 under setting [1] and 0.6814 ± 0.006 (genetic background: wild type).

Turning to RHISRLSRLLCR [YGR273C C-terminal 12 aa], the protein stability index came to 0.6071 ± 0.00082 under setting [1] and 0.621 ± 0.027 (genetic background: wild type).

Turning to RINQDIKKVKLL [EMP46 C-terminal 12 aa], the protein stability index under setting [1] was found to be 0.6957 ± 0.0047 and the protein stability index (genetic background: wild type) is 0.145 ± 0.016.

RKAVDALRSLTN [ACK1 C-terminal 12 aa] gave a protein stability index under setting [1] of 0.719 ± 0.051 and a protein stability index (genetic background: wild type) of 0.722 ± 0.045.

For the sequence RKVVFERMETLE [MRPS16 C-terminal 12 aa], the protein stability index came out at 0.6857 ± 0.0044 under setting [1] and 0.683 ± 0.031 (genetic background: wild type).
